From patent publication US20190275101

B1: Houston virus protease (HOV Pro), GII.4 norovirus protease, wild-type (protein)
chain: APPSIWSRIVNFGSGWGFWVSPSLFITSTHVIPQGAKEFFGVPIKQIQVHKSGEFCRLRFPKPIRTDVTGMILEEGAPEGTVVTLLIKRSTGELMPLAARMGTHATMKIQGRTVGGQMGMLLTGSNAKSMDLGTTPGDCGCPYIYKRGNDYVVIGVHTAAARGGNTVICATQGSEGEATLE
B2: HOV Pro R112A mutant (protein)
chain: APPSIWSRIVNFGSGWGFWVSPSLFITSTHVIPQGAKEFFGVPIKQIQVHKSGEFCRLRFPKPIRTDVTGMILEEGAPEGTVVTLLIKRSTGELMPLAARMGTHATMKIQGATVGGQMGMLLTGSNAKSMDLGTTPGDCGCPYIYKRGNDYVVIGVHTAAARGGNTVICATQGSEGEATLE

Molecular target: T1, Fluorogenic peptide Glu(EDANS)-GDYELQGPEDLA-Lys(Dabcyl), p48/p41 cleavage site of the HOV polyprotein
T1 chain: EGDYELQGPEDLAK

Protein	FRET proteolytic activity at pH 8, 6.5 and 5	kcat/Km, FRET assay at pH 8	FRET proteolytic activity at pH 6.5
B1	while HOV Pro was active at pH 8, it showed no activity at pH 6.5 and pH 5	kcat/Km=843.7 M^-1s^-1	–
B2	–	kcat/Km=1215 M^-1s^-1	Unlike the wild-type HOV Pro, R112A mutant was active at pH 6.5
